Assay results published in publication PMC6220203 (2018).

Target: Biotinylated aMD5 (C-terminal biotinylated macrocycle) (macrocyclized; biotin (NHS-biotin) on the added C-terminal Lys)
Assay: SPR

B1: MET receptor extracellular domain SEMA–IPT4 (residues 1–931)-Fc (Fc fusion)
chain: ECKEALAKSEMNVNMKYQLPNFTAETPIQNVILHEHHIFLGATNYIYVLNEEDLQKVAEYKTGPVLEHPDCFPCQDCSSKANLSGGVWKDNINMALVVDTYYDDQLISCGSVNRGTCQRHVFPHNHTADIQSEVHCIFSPQIEEPSQCPDCVVSALGAKVLSSVKDRFINFFVGNTINSSYFPDHPLHSISVRRLKETKDGFMFLTDQSYIDVLPEFRDSYPIKYVHAFESNNFIYFLTVQRETLDAQTFHTRIIRFCSINSGLHSYMEMPLECILTEKRKKRSTKKEVFNILQAAYVSKPGAQLARQIGASLNDDILFGVFAQSKPDSAEPMDRSAMCAFPIKYVNDFFNKIVNKNNVRCLQHFYGPNHEHCFNRTLLRNSSGCEARRDEYRTEFTTALQRVDLFMGQFSEVLLTSISTFIKGDLTIANLGTSEGRFMQVVVSRSGPSTPHVNFLLDSHPVSPEVIVEHTLNQNGYTLVITGKKITKIPLNGLGCRHFQSCSQCLSAPPFVQCGWCHDKCVRSEECLSGTWTQQICLPAIYKVFPNSAPLEGGTRLTICGWDFGFRRNNKFDLKKTRVLLGNESCTLTLSESTMNTLKCTVGPAMNKHFNMSIIISNGHGTTQYSTFSYVDPVITSISPKYGPMAGGTLLTLTGNYLNSGNSRHISIGGKTCTLKSVSNSILECYTPAQTISTEFAVKLKIDLANRETSIFSYREDPIVYEIHPTKSFISGGSTITGVGKNLNSVSVPRMVINVHEAGRNFTVACQHRSNSEIICCTTPSLQQLNLQLPLKTKAFFMLDGILSKYFDLIYVHNPVFKPFEKPVMISMGNENVLEIKGNDIDPEAVKGEVLKVGNKSCENIHLHSEAVLCTVPNDLLKLNSELNIEWKQAISSTVLGKVIVQPDQNF
koff: 0.00041 s⁻¹
